In the supplement of paper PMC9170038:

Tested on: MS2 coat protein
Assay: apparent KD of MS2 coat protein; designed switch direction (-1 OFF switch, 1 ON switch): -1; higher = weaker reporter binding
Procedure, shortened: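 For each design, the apparent KD is the median over clusters of curves fitted to normalised cluster fluorescence. Clusters held RNA switches with common flanks, transcribed on Illumina chips by stalled E. coli RNA polymerase. These were titrated with SNAP-549-labelled MS2 coat protein, doubling from 0.7 or 1.5 nM to 3 µM, without input, with 200 uM small-molecule ligand, or with an oligonucleotide input.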

[1] = Eterna round: R95, input ligand: FMN 200 uM
[2] = Eterna round: R95, input ligand: microRNA oligo, concentration not stated
[3] = Eterna round: R95, input ligand: none
[4] = input ligand: microRNA oligo, concentration not stated

| Sequence | apparent KD of MS2 coat protein [1] [nM] | apparent KD of MS2 coat protein [2] [nM] | apparent KD of MS2 coat protein [3] [nM] | apparent KD of MS2 coat protein (input ligand: FMN 200 uM) [nM] | apparent KD of MS2 coat protein (input ligand: none) [nM] | apparent KD of MS2 coat protein [4] [nM] |
| --- | --- | --- | --- | --- | --- | --- |
| AGGAGCAGAGGGAGAUCCAACAUGAGGAUCACCCAUGUCUCAUAAGCUUUUUGCUCAUCUUAUUGUACCUUGGUGCA [Mat - Sensor v3 - turn-off var 1 - JL Mod - D27] (puzzle: Sensor v3, turn-off variant 1) | 29.2 | 12.5 | 22.3 | – | – | – |
| CCUUUGUCAGGAUAUCAGAACACGCUCCUAGGGAGCGCAAAUGAGAAGGGACAUGAGGAUCACCCAUGUAAAGA [Arisesat] (puzzle: Exclusion 4) | 318 | 41.6 | 54.8 | – | – | – |
| AUACCAUGCCGCCUAAUAGCUUUUUGCUCGUCUUAUAAAACAUGAGGAUCACCCAUGUAAAACUCGUGGCGUGACCC [Leorbixe] (puzzle: Sensor v3, turn-off variant 2) | 77 | 19.9 | 60.8 | – | – | – |
| CUUUUGUGAGGAUAUUAGUAGUUUAUAAUUAAAAUUAUUACUGAGAAGGCACAUGAGGAUCACCCAUGUACCAC [JR_Ex4_Sub030] (Eterna round: R97, puzzle: Exclusion 4) | – | – | – | 92.8 | 21.8 | – |
| GUCUCGUCAGGAUAUGACGCUACAUUUUUUUUUUAGAAGAGUCAGAAGGGACAUGAGGAUCACCCAUGUGAUUC [Ex4 - 3 - 2] (puzzle: Exclusion 4) | – | 167 | – | – | – | – |
| GGAAGGCGAGGAUAUGCAAUAAAGCAGGCGAAGGCCUGCAAACAUGAGGAUCACCCAUGUAGAAGGCGCGAGAA [AK-MS2ROC-r4-exclusion2-6.6] (Eterna round: R97, puzzle: Exclusion 2) | – | – | – | 17.2 | 26.1 | – |
| CGUAUGUGAGGAUAUGACAAUGGUAUCUUCGGAUACCAUUGUCAGAAGGAACAUGAGGAUCACCCAUGUAGAUC (Eterna round: R96, puzzle: Exclusion 4) | – | – | – | 161 | 54.5 | 43.1 |
| ACCGCAAGAGGAUAUACAUGAGGAUCACCCAUGUCGACCGCGAGAGACGUGGACCGGCGUAGAAGGCUUGCCAC [Eternabot (Original) Solution 50] (Eterna round: R97, puzzle: Exclusion 3) | – | – | – | 355 | 56.8 | – |
| GCUUGUAGAGGAUAUACGAGGGCCCGAGCGGCGAGAGCCGCACAUGAGGAUCACCCAUGUAGAAGGCUACUAUU [JL-ex2-4.19 ViennaUCT mod] (Eterna round: R97, puzzle: Exclusion 2) | – | – | – | 358 | 133 | – |
| UCAUGGUAGCAGGAUAUGCUUGUUUAAUUUUUUGCAGAAGGGCUAACAUGAGGAUCACCCAUGUGAGAGGUCUA [JR_E6_Sub065] (puzzle: Exclusion 6) | 31 | 64.3 | 144 | – | – | – |
| AGCUGUGGCCGAGGAUAUCUAAUAGUCCCAACCGAAAUAUAAUCGGACAUGAGGAUCACCCAUGUAGAGAAGGCGGUCUCAGCA [Eli eng2 - 069] (Eterna round: R96, puzzle: Exclusion NG 2) | – | – | – | 286 | 113 | 102 |
| GACUGUCGAGAGGAUAUCUUUCCCAAGCGGGUCAGAGAAGGCUUGACAUGAGGAUCACCCAUGUUGAUUGCUAG [EX6 C.23] (Eterna round: R97, puzzle: Exclusion 6) | – | – | – | 389 | 140 | – |
| AUUUAGAGAGGAUAUAUAUUUUAAAACAUGAGGAUCACCCAUGUAAUUUUAUGGGAGAAAAUAGAAGGCUCAUUUA [JMFs Solution 1] (puzzle: Exclusion 5) | 114 | 205 | 197 | – | – | – |
| CCUCAGUAAGGAUAUCAGCUUAUAGAGUUGGUAAUGAGAGCUGAGAAGGUACAUGAGGAUCACCCAUGUUAGUU [JL Zatite mod 3] (puzzle: Exclusion 4) | – | 23.5 | – | – | – | – |
| CGACUGUGAGGAUAUGGUGAGUAGUGCCUGAGCGCUGCUCACCAGAAGGCACAUGAGGAUCACCCAUGUAUGAC [Mat - Exclusion 4 - Mod of JL - D8] (puzzle: Exclusion 4) | – | 72.8 | – | – | – | – |
| ACGCCAGGAGGAUAUGCAAUAAGUAACAUGAGGAUCACCCAUGUUCGGGCGAUCCUCGUGGCAGAAGGCCUAGCCG [Attira] (Eterna round: R97, puzzle: Exclusion 5) | – | – | – | 95.5 | 24.4 | – |
| CAUACUCAAGUGAGGAUAUUGUCUCGGAUACGAAACAAGAAGGCACAUGAGGAUCACCCAUGUAGAGAGUAAAG [EX-4 Malc #30] (puzzle: Brourd's mod of Exclusion 4) | 136 | 25.1 | 25.6 | – | – | – |
| CUGGUCCGAGGAUAUAUUAAGUGAUACAUGAGGAUCACCCAUGUUAUUUAAUGGAUGUUAAUAGAAGGCGGACUAG [JL-ex5-3.19] (puzzle: Exclusion 5) | 33.9 | 43.9 | 34.8 | – | – | – |

| Sequence | apparent KD of MS2 coat protein [1] [nM] | apparent KD of MS2 coat protein [2] [nM] | apparent KD of MS2 coat protein [3] [nM] | apparent KD of MS2 coat protein (input ligand: FMN 200 uM) [nM] | apparent KD of MS2 coat protein (input ligand: none) [nM] | apparent KD of MS2 coat protein [4] [nM] |
| --- | --- | --- | --- | --- | --- | --- |
| CAUUCCGAGCGAGGAUAUCAGUAAAAGGGAAGCUGAGAAGGCGCAAACAUGAGGAUCACCCAUGUCACACGCGGGUAGUUUUCC [Ditiso] (Eterna round: R96, puzzle: Exclusion NG 1) | – | – | – | 13.9 | 14.3 | 9.74 |
| GUUGAUGUAGGAUAUACAUGAGGAUCACCCAUGUUGGUGCCCUAACCUAUUGGUGUACGUAGAAGGGCGGACUC [Eternabot (L2) Solution 96] (Eterna round: R97, puzzle: Exclusion 3) | – | – | – | 103 | 95.2 | – |
| ACAUGUAUUGCAGGAUAUGGGACACAUGAGGAUCACCCAUGUGACUACAUGUAAUGCCACGGGUCUCAGAAGGGUAUGUACAUG [Ex NG2 #42] (Eterna round: R96, puzzle: Exclusion NG 2) | – | – | – | 81.5 | 31.3 | 22.9 |
| UCGCCGCCCUUGGGCGGCGACAUGAGGAUCACCCAUGUCAAGCUUUUUGCUCGUUUUAUUGCCGGCCUUGGCCGGCU [Olib_2] (Eterna round: R97, puzzle: Sensor, turn-off variant 1) | – | – | – | 28.3 | 33.2 | – |
| GGGCCCGGAGGAUAUACAAUCCCGGGUUGAAAGGCCCGGGUACAUGAGGAUCACCCAUGUAGAAGGCCGGGCCC [-42.3, -39.6 kcal A 24%, 5c bis,0] (Eterna round: R97, puzzle: Exclusion 2) | – | – | – | 20.9 | 13.8 | – |
| UUUGUUUAUGUGAGGAUAUACUGUUUGUUUUGUUUGUAGAAGGUACAUGAGGAUCACCCAUGUUUUGUUUUUUU [JR_BME4_Sub033] (puzzle: Brourd's mod of Exclusion 4) | – | 21 | – | – | – | – |
| AAUUAGUAUGUGAGGAUAUUGAUGUAAUGACGGUUUAAGAAGGCACAUGAGGAUCACCCAUGUAAAUGAUCACG [JR_BMEx4_Sub008] (Eterna round: R97, puzzle: Brourd's mod of Exclusion 4) | – | – | – | 74.4 | 37.7 | – |
| CUAGACCGAGGAUAUAUUAUGUGAAACAUGAGGAUCACCCAUGUAAUAUGAUGGAUGUAAAUAGAAGGCGGUCUAG [Mat - Exclusion 5 - JL mod - D29] (puzzle: Exclusion 5) | 31.4 | 53.4 | 23 | – | – | – |
| UCACGGGUUUGAGGAUAUAUUAUUAUUAUUUAAAUAGAAGGCAAAGAAAUUGUUAUUUCACUAUACAUGAGGAUCACCCAUGUU [JR_ExcNG1_Sub088] (Eterna round: R96, puzzle: Exclusion NG 1) | – | – | – | – | – | 19.5 |
| GUGGGCUUUUAGGUUCUUGACAUGAGGAUCACCCAUGUGCUUGUCUUGCUGGCUGGCGGGUCGUCGGUCGGGCUUGU (Eterna round: R97, puzzle: Sensor, turn-off variant 1) | – | – | – | 559 | 646 | – |
| UGCCAGAAAGGAUAUACAGCCCGGGCGUUCCUGCGAUAUAUACAUGAGGAUCACCCAUGUAGAAGGUUCGGCGG [EX2 C.12] (Eterna round: R97, puzzle: Exclusion 2) | – | – | – | 33.1 | 28.5 | – |
| UCACGGGAUUGAGGAUAUAUAUUAAUUUUUACAAUAGAAGGCAAAUUUUUAGUUUUUUCACUUUACAUGAGGAUCACCCAUGUU [JR_ExcBG1_Sub081] (Eterna round: R96, puzzle: Exclusion NG 1) | – | – | – | – | – | 20.5 |
| AAAUUCAGAGGAUAUGCGCAUAGAUAAGACUUUUUUUUUUAACAUGAGGAUCACCCAUGUAGAAGGCUGUAAAU [Ex2 #52] (Eterna round: R97, puzzle: Exclusion 2) | – | – | – | 24 | 25.5 | – |
| UUUAUUUUGCAAGGAUAUGUUUAAUUUUAGUUUCCUUAAACAUGAGGAUCACCCAUGUUAUACUUACAGAAGGUGCAUAAUUUU [JR_ExcNG2_Sub036] (Eterna round: R96, puzzle: Exclusion NG 2) | – | – | – | – | – | 73.3 |
| CAGUAGGCAGGAUAUACAUGAGGAUCACCCAUGUGAUUUAGUGCACGCGUACGUGUACGUAGAAGGGCCUACUG [JL 3.27 m7] (Eterna round: R97, puzzle: Exclusion 3) | – | – | – | 91.8 | 17.9 | – |
| UUAAAUCAUGUAGGAUAUGCGUGGCGAAGCUAUGCAGAAGGACAUGAGGAUCACCCAUGUUCUAGCGUCUGAGUACAGAUGCAA [Mat - Exclusion NG 1 - Mod of JL - D2] (Eterna round: R96, puzzle: Exclusion NG 1) | – | – | – | 244 | 18.9 | 17.4 |
| GAUUAAUGCAAGGAUAUGCUAUUAAUUUAUUUUGCAGAAGGUGCAACAUGAGGAUCACCCAUGUUGGAGGGUAU [JR_E6_Sub027] (puzzle: Exclusion 6) | – | 18.8 | – | – | – | – |
